Measurements as given in paper PMC2650403.

B1: Protector of telomeres 1, variant 1 (POT1v1) (natural protein)
chain: MSLVPATNYIYTPLNQLKGGTIVNVYGVVKFFKPPYLSKGTDYCSVVTIVDQTNVKLTCLLFSGNYEALPIIYKNGDIVRFHRLKIQVYKKETQGITSSGFASLTFEGTLGAPIIPRTSSKYFNFTTEDHKMVEALRVWASTHMSPSWTLLKLCDVQPMQYFDLTCQLLGKAEVDGASFLLKVWDGTRTPFPSWRVLIQDLVLEGDLSHIHRLQNLTIDILVYDNHVHVARSLKVGSFLRIYSLHTKLQSMNSENQTMLSLEFHLHGGTSYGRGIRVLPESNSDVDQLKKDLESANLTANQHSDVICQSEPDDSFPSSGSVSLYEVERCQQLSATILTDHQYLERTPLCAILKQKAPQQYRIRAKLRSYKPRRLFQSVKLHCPKCHLLQEVPHEGDLDIIFQDGATKTPDVKLQNTSLYDSKIWTTKNQKGRKVAVHFVKNNGILPLSNECLLLIEGGTLSEICKLSNKFNSVIPVRSGHEDLELLDLSAPFLIQGTIHHYGCKQCSSLRSIQNLNSLVDKTSWIPSSVAEALGIVPLQYVFVMTFTLDDGTGVLEAYLMDSDKFFQIPASEVLMDDDLQKSVDMIMDMFCPPGIKIDAYPWLECFIKSYNVTNGTDNQICYQIFDTTVAEDVI

Tests used:
[1] = target: Werner syndrome protein (WRN), recombinant His6-tagged, wild type (human) (UniProt Q14191)
[2] = target: WRN-E84A, full-length WRN with the N-terminal exonuclease inactivating mutation E84 to alanine (human) (UniProt Q14191)

Molecule | radiometric DNA helicase assay, percent unwinding of a telomeric-repeat substrate lacking the 3′-ss tail by WRN (3 nM) with RPA 6 to 24 nM [1] [%] | radiometric DNA helicase assay, increase in unwound product of a 30-nt gap telomeric substrate pre-bound with POT1v1 (6 to 48 nM), WRN-E84A 6 nM; value at the 1:8 ratio of WRN-E84A to POT1v1 [2] [%]
Recombinant human replication protein A (RPA) (complex) | 22 | 
B1 |  | 10
